According to US20170129959A1:

Legend:
[1] = target: Human CD127 (IL-7 receptor alpha chain) expressed on cells (human) (UniProt P16871); assay: cell-based or functional assay
[2] = target: Recombinant CD127 Fc Chimera (10975-H03H, Sino Biological) (human) (UniProt P16871); assay: SPR (Biacore 3000), CD127Fc immobilised on CM5 chip, antibody injected, Bivalent analyte model
[3] = target: Recombinant hCD127 (Sino Biologicals, reference 10975-H08H) (human) (UniProt P16871); assay: ELISA on immobilised recombinant hCD127
Recombinant hCD127 (Sino Biologicals, reference 10975-H08H) (human), sequence (P16871 21-239 I66T/V138I limits assumed): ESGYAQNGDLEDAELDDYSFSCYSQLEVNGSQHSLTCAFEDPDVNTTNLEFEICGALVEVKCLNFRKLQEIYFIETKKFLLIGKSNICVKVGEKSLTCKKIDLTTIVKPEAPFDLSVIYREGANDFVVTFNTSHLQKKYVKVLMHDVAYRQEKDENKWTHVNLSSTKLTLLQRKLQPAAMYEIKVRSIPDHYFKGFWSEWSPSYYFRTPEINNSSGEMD

[4] = target: Recombinant hCD127 (Sino Biologicals, reference 10975-H08H) (human) (UniProt P16871); assay: ELISA, recombinant hCD127 coated on plastic at 1 µg/ml, antibody titrated; printed as ED 50

Recombinant CD127 Fc Chimera (10975-H03H, Sino Biological) (human), sequence (P16871 21-239 I66T/V138I limits assumed): as above
Human CD127 (IL-7 receptor alpha chain) expressed on cells (human), sequence (P16871 21-459 I66T/V138I): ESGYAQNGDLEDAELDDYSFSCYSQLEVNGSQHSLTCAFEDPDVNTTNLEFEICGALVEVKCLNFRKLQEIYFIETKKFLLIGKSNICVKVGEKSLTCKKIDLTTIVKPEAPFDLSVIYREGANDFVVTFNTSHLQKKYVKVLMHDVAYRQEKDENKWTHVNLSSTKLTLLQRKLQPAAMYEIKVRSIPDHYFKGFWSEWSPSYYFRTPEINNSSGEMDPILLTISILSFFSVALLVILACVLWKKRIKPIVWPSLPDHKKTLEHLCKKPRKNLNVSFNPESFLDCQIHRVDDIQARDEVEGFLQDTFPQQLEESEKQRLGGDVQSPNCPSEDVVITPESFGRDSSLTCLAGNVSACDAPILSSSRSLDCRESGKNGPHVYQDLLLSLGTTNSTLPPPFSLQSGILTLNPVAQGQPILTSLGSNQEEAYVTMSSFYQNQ

Row | inhibition of IL-7 induced pSTAT5+ T lymphocytes (% inhibition at 1000 ng/mL) [1] | Ka [2] | Kd [2] | koff [2] | kon [2] | EC50 (read off the curve) [3] | EC50 [4] | Binder
1 | 50 | – | – | – | – | – | – | MD707-13 (anti-human CD127 antibody, WO2013/056984) (antibody, from another filing, V domains shown) VH: QLKESGPGLVQPSQTLSLTCTVSGLSLPNNNIAWIRQSPGKGLEWMGVIWSNGDTDYNSAIRSRLSISRDSSKSQVFLRMNSLQSEDTAMYFCAREGMTTLDYWGQGVVVTVSS VL: EIVLTQSPTTMAASPGEKVTITCRASSSVSYMHWFQQKSGSSPKPWIYDSSDLASGVPDRFSGSGSGTSYSLTISSMEAEDAATYYCLQRSSYPRTFGGGTKLELKR
2 | – | 2.19e+09 M⁻¹ | 0.456 nM | 0.000121 s⁻¹ | 266000 M⁻¹ s⁻¹ | 0.1 µg/mL | 0.123 µg/mL | MD707-1 (rat anti-human CD127 antibody, previous generation) (antibody, from another filing, V domains shown) VH: AVHLVESGGGLVQPKESLKISCAASGFTFSNAAMFWVRQAPGKGLEWVARIRTKANNYATYYADSVKGRFTISRDDSKSMVYLQMDNVKTDDTAMYYCIVVVLTTTRDYFDYWGQGVMVTVSS VL: DIVLTQAPLSVSVTPGESASISCRSSQSLLTVKGITSLYWFLQKPGKSPQLLMYRMSNLASGVPDRFRGSGSETDFTLKISKVETEDVGVYYCAQFLEYPHTFGAGTKLELKR
